Assay results reported in the supplement of paper PMC5998384.

Columns and labels:
[1] = system: HeLa Kyoto; assay: solubility in G1/S (NP-40 vs SDS abundance) (log2 ratio); higher = more soluble; settings: cell cycle stage: G1/S
[2] = system: HeLa Kyoto; assay: melting temperature (median over replicates), in situ; higher = more thermally stable
[3] = system: HeLa Kyoto; assay: solubility change mitosis vs G1/S (difference of NP-40 vs SDS log2 ratios) (log2 ratio difference); higher = more soluble in mitosis
[4] = system: HeLa Kyoto; assay: thermal stability score vs G1/S (z-score of summed log2 fold changes over temperatures); higher = more thermally stable than in G1/S
[5] = cell cycle stage: early G1 (4.5 h after nocodazole release)
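Throughout, for melting temperature (median over replicates), in situ: HeLa Kyoto cells synchronized by double thymidine or nocodazole block, proteins quantified by TMT10plex mass spectrometry, three independent biological replicates.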
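Throughout, for solubility change mitosis vs G1/S (difference of NP-40 vs SDS log2 ratios): synchronized HeLa Kyoto cells (double thymidine block for G1/S, nocodazole release for mitosis), protein amounts in NP-40 versus SDS lysates quantified by mass spectrometry, three biological replicates.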
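Throughout, for solubility in G1/S (NP-40 vs SDS abundance): HeLa Kyoto cells arrested at G1/S by double thymidine block, proteins quantified by TMT10plex mass spectrometry in mild NP-40 versus SDS extracts, three biological replicates.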
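Throughout, for thermal stability score vs G1/S (z-score of summed log2 fold changes over temperatures): synchronized HeLa Kyoto cells, proteins quantified by TMT10plex mass spectrometry, three biological replicates, mitosis taken 0.5 h after nocodazole release, G1/S directly after double thymidine block.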

Row | Substance | solubility in G1/S (log2) [1] | melting temperature ([2]; cell cycle stage: G1/S) | melting temperature ([2]; cell cycle stage: mitosis) | solubility change mitosis (log2) [3] | thermal stability score [4, 5] | thermal stability score ([4]; cell cycle stage: mitosis)
1 | MAAETRNVAGAEAPPPQKRYYRQRAHSNPMADHTLRYPVKPEEMDWSELYPEFFAPLTQNQSHDDPKDKKEKRAQAQVEFADIGCGYGGLLVELSPLFPDTLILGLEIRVKVSDYVQDRIRALRAAPAGGFQNIACLRSNAMKHLPNFFYKGQLTKMFFLFPDPHFKRTKHKWRIISPTLLAEYAYVLRVGGLVYTITDVLELHDWMCTHFEEHPLFERVPLEDLSEDPVVGHLGTSTEEGKKVLRNGGKNFPAIFRRIQDPVLQAVTSQTSLPGH [METTL1] | 0.231 | 52.4 °C | 54.7 °C | -0.075 | 0.937 | 2.85
2 | MGGAVVDEGPTGVKAPDGGWGWAVLFGCFVITGFSYAFPKAVSVFFKELIQEFGIGYSDTAWISSILLAMLYGTGPLCSVCVNRFGCRPVMLVGGLFASLGMVAASFCRSIIQVYLTTGVITGLGLALNFQPSLIMLNRYFSKRRPMANGLAAAGSPVFLCALSPLGQLLQDRYGWRGGFLILGGLLLNCCVCAALMRPLVVTAQPGSGPPRPSRRLLDLSVFRDRGFVLYAVAASVMVLGLFVPPVFVVSYAKDLGVPDTKAAFLLTILGFIDIFARPAAGFVAGLGKVRPYSVYLFSFSMFFNGLADLAGSTAGDYGGLVVFCIFFGISYGMVGALQFEVLMAIVGTHKFSSAIGLVLLMEAVAVLVGPPSGGKLLDATHVYMYVFILAGAEVLTSSLILLLGNFFCIRKKPKEPQPEVAAAEEEKLHKPPADSGVDLREVEHFLKAEPEKNGEVVHTPETSV [SLC16A3] | 0.106 | 60.1 °C | 61.9 °C | -0.161 | -4.29 | -4.22
3 | MSLADELLADLEEAAEEEEGGSYGEEEEEPAIEDVQEETQLDLSGDSVKTIAKLWDSKMFAEIMMKIEEYISKQAKASEVMGPVEAAPEYRVIVDANNLTVEIENELNIIHKFIRDKYSKRFPELESLVPNALDYIRTVKELGNSLDKCKNNENLQQILTNATIMVVSVTASTTQGQQLSEEELERLEEACDMALELNASKHRIYEYVESRMSFIAPNLSIIIGASTAAKIMGVAGGLTNLSKMPACNIMLLGAQRKTLSGFSSTSVLPHTGYIYHSDIVQSLPPDLRRKAARLVAAKCTLAARVDSFHESTEGKVGYELKDEIERKFDKWQEPPPVKQVKPLPAPLDGQRKKRGGRRYRKMKERLGLTEIRKQANRMSFGEIEEDAYQEDLGFSLGHLGKSGSGRVRQTQVNEATKARISKTLQRTLQKQSVVYGGKSTIRDRSSGTASSVAFTPLQGLEIVNPQAAEKKVAEANQKYFSSMAEFLKVKGEKSGLMST [PRPF31] | -0.0726 | 46.8 °C | 48.3 °C | 0.246 | 2.25 | 7.81
4 | ABCC5 | -0.243 | 53.6 °C | 53.8 °C | 0.0132 | -0.48 | -1.25
5 | MNPDLRRERDSASFNPELLTHILDGSPEKTRRRREIENMILNDPDFQHEDLNFLTRSQRYEVAVRKSAIMVKKMREFGIADPDEIMWFKKLHLVNFVEPVGLNYSMFIPTLLNQGTTAQKEKWLLSSKGLQIIGTYAQTEMGHGTHLRGLETTATYDPETQEFILNSPTVTSIKWWPGGLGKTSNHAIVLAQLITKGKCYGLHAFIVPIREIGTHKPLPGITVGDIGPKFGYDEIDNGYLKMDNHRIPRENMLMKYAQVKPDGTYVKPLSNKLTYGTMVFVRSFLVGEAARALSKACTIAIRYSAVRHQSEIKPGEPEPQILDFQTQQYKLFPLLATAYAFQFVGAYMKETYHRINEGIGQGDLSELPELHALTAGLKAFTSWTANTGIEACRMACGGHGYSHCSGLPNIYVNFTPSCTFEGENTVMMLQTARFLMKSYDQVHSGKLVCGMVSYLNDLPSQRIQPQQVAVWPTMVDINSPESLTEAYKLRAARLVEIAAKNLQKEVIHRKSKEVAWNLTSVDLVRASEAHCHYVVVKLFSEKLLKIQDKAIQAVLRSLCLLYSLYGISQNAGDFLQGSIMTEPQITQVNQRVKELLTLIRSDAVALVDAFDFQDVTLGSVLGRYDGNVYENLFEWAKNSPLNKAEVHESYKHLKSLQSKL [ACOX1] | 0.331 | 55.9 °C | 58.3 °C | -0.212 | -1.6 | -3.2
6 | MAASASAAAGEEDWVLPSEVEVLESIYLDELQVIKGNGRTSPWEIYITLHPATAEDQDSQYVCFTLVLQVPAEYPHEVPQISIRNPRGLSDEQIHTILQVLGHVAKAGLGTAMLYELIEKGKEILTDNNIPHGQCVICLYGFQEKEAFTKTPCYHYFHCHCLARYIQHMEQELKAQGQEQEQERQHATTKQKAVGVQCPVCREPLVYDLASLKAAPEPQQPMELYQPSAESLRQQEERKRLYQRQQERGGIIDLEAERNRYFISLQQPPAPAEPESAVDVSKGSQPPSTLAAELSTSPAVQSTLPPPLPVATQHICEKIPGTRSNQQRLGETQKAMLDPPKPSRGPWRQPERRHPKGGECHAPKGTRDTQELPPPEGPLKEPMDLKPEPHSQGVEGPPQEKGPGSWQGPPPRRTRDCVRWERSKGRTPGSSYPRLPRGQGAYRPGTRRESLGLESKDGS [RNF25] | 0.537 | 52.7 °C | 52.7 °C | 0.00785 | -0.22 | -0.474
7 | MKGSRIELGDVTPHNIKQLKRLNQVIFPVSYNDKFYKDVLEVGELAKLAYFNDIAVGAVCCRVDHSQNQKRLYIMTLGCLAPYRRLGIGTKMLNHVLNICEKDGTFDNIYLHVQISNESAIDFYRKFGFEIIETKKNYYKRIEPADAHVLQKNLKVPSGQNADVQKTDN [NAA50] | 0.325 | 53.1 °C | 53.8 °C | -0.0822 | 0.726 | -0.495
8 | MKVTVCFGRTRVVVPCGDGHMKVFSLIQQAVTRYRKAIAKDPNYWIQVHRLEHGDGGILDLDDILCDVADDKDRLVAVFDEQDPHHGGDGTSASSTGTQSPEIFGSELGTNNVSAFQPYQATSEIEVTPSVLRANMPLHVRRSSDPALIGLSTSVSDSNFSSEEPSRKNPTRWSTTAGFLKQNTAGSPKTCDRKKDENYRSLPRDTSNWSNQFQRDNARSSLSASHPMVGKWLEKQEQDEDGTEEDNSRVEPVGHADTGLEHIPNFSLDDMVKLVEVPNDGGPLGIHVVPFSARGGRTLGLLVKRLEKGGKAEHENLFRENDCIVRINDGDLRNRRFEQAQHMFRQAMRTPIIWFHVVPAANKEQYEQLSQSEKNNYYSSRFSPDSQYIDNRSVNSAGLHTVQRAPRLNHPPEQIDSHSRLPHSAHPSGKPPSAPASAPQNVFSTTVSSGYNTKKIGKRLNIQLKKGTEGLGFSITSRDVTIGGSAPIYVKNILPRGAAIQDGRLKAGDRLIEVNGVDLVGKSQEEVVSLLRSTKMEGTVSLLVFRQEDAFHPRELNAEPSQMQIPKETKAEDEDIVLTPDGTREFLTFEVPLNDSGSAGLGVSVKGNRSKENHADLGIFVKSIINGGAASKDGRLRVNDQLIAVNGESLLGKTNQDAMETLRRSMSTEGNKRGMIQLIVARRISKCNELKSPGSPPGPELPIETALDDRERRISHSLYSGIEGLDESPSRNAALSRIMGESGKYQLSPTVNMPQDDTVIIEDDRLPVLPPHLSDQSSSSSHDDVGFVTADAGTWAKAAISDSADCSLSPDVDPVLAFQREGFGRQSMSEKRTKQFSDASQLDFVKTRKSKSMDLGIADETKLNTVDDQKAGSPSRDVGPSLGLKKSSSLESLQTAVAEVTLNGDIPFHRPRPRIIRGRGCNESFRAAIDKSYDKPAVDDDDEGMETLEEDTEESSRSGRESVSTASDQPSHSLERQMNGNQEKGDKTDRKKDKTGKEKKKDRDKEKDKMKAKKGMLKGLGDMFRFGKHRKDDKIEKTGKIKIQESFTSEEERIRMKQEQERIQAKTREFRERQARERDYAEIQDFHRTFGCDDELMYGGVSSYEGSMALNARPQSPREGHMMDALYAQVKKPRNSKPSPVDSNRSTPSNHDRIQRLRQEFQQAKQDEDVEDRRRTYSFEQPWPNARPATQSGRHSVSVEVQMQRQRQEERESSQQAQRQYSSLPRQSRKNASSVSQDSWEQNYSPGEGFQSAKENPRYSSYQGSRNGYLGGHGFNARVMLETQELLRQEQRRKEQQMKKQPPSEGPSNYDSYKKVQDPSYAPPKGPFRQDVPPSPSQVARLNRLQTPEKGRPFYS [PARD3] | -0.137 | 47.7 °C | 49.3 °C | 0.111 | 0.772 | 2.38
9 | MSFLLPKLTSKKEVDQAIKSTAEKVLVLRFGRDEDPVCLQLDDILSKTSSDLSKMAAIYLVDVDQTAVYTQYFDISYIPSTVFFFNGQHMKVDYGSPDHTKFVGSFKTKQDFIDLIEVIYRGAMRGKLIVQSPIDPKNIPKYDLLYQDI [TXNL4B] | 0.0975 | 51 °C | 51.8 °C | 0.00266 | 0.0365 | 1.15
